Assays:
[1] = target: BiP NBD (human BiP nucleotide binding domain, aa 26-405, from 6His-Smt3-BiP NBD) (human) (UniProt P11021); test: MST
[2] = target: BiP NBD (human BiP nucleotide binding domain, aa 26-405, from 6His-Smt3-BiP NBD) (human) (UniProt P11021); test: SPR

UniProt P11021, sequence (P11021 26-405): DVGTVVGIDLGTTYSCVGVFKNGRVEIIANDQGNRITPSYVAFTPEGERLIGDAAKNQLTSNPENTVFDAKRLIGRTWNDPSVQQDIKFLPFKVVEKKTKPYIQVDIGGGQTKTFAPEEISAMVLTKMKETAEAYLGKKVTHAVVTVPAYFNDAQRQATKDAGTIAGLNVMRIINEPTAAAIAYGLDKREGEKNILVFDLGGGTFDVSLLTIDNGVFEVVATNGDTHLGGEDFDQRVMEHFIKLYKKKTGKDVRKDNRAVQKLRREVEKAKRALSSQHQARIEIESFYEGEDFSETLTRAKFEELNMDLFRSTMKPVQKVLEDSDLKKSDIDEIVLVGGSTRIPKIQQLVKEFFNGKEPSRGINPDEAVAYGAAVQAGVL

Substance | Kd [1] [µM] | Kd [2] [µM]
CDNF A134Q purified from CHO cells (natural protein) | > 10 | 
FL-CDNF (aa 1-161) purified from E. coli (natural protein) |  | 23.4
CDNF V118Y-E137A double mutant purified from CHO cells (natural protein) | > 10 | 

Reference: article doi:10.1101/2025.07.08.663636
